From PMC9482650, “Quantitative fragmentomics allow affinity mapping of interactomes” (Nature Communications, 2022)

How the values were obtained:
Assay in all cases: holdup assay
Set-up in all cases: key: below the threshold = too weak to quantify, mostly under pKd 3.1 to 4
Conditions in all cases: plain residues with an end cap or a label only (N-terminal biotin on a linker: ttds)
[1] = biological target: CARD14, Q9BXL6
[2] = biological target: DLG2_1, Q15700
[3] = biological target: DLG5_2, Q8TDM6
Chain of DLG5_2, Q8TDM6 (Q8TDM6 714-800): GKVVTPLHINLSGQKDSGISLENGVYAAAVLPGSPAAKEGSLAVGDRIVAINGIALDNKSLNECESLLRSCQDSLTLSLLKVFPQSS

[4] = biological target: T1, GIPC1, O14908
T1 sequence (O14908 128-223, limits assumed, looked up): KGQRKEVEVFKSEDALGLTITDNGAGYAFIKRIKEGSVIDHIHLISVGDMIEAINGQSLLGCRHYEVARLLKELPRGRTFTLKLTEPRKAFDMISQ

[5] = biological target: GRIP2_2, Q9C0E4
Chain of GRIP2_2, Q9C0E4 (Q9C0E4 137-245): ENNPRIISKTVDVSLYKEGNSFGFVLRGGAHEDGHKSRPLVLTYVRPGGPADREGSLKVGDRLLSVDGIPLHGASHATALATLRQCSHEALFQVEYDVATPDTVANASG

[6] = biological target: LIMK1, P53667
Chain of LIMK1, P53667 (P53667 155-268): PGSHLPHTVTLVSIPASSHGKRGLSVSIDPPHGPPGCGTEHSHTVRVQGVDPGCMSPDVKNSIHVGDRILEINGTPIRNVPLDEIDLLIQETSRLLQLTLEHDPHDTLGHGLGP

[7] = biological target: LMO7, Q8WWI1
Chain of LMO7, Q8WWI1 (Q8WWI1 1037-1138): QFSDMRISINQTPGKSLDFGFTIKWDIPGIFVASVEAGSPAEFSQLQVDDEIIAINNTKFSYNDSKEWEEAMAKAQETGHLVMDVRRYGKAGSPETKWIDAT

[8] = biological target: MAGI1_5, Q96QZ7
Chain of MAGI1_5, Q96QZ7 (Q96QZ7 986-1098): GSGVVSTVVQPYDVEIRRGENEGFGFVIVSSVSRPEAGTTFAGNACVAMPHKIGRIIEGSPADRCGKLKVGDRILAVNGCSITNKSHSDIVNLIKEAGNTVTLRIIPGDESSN

[9] = biological target: MAGI1_6, Q96QZ7
Chain of MAGI1_6, Q96QZ7 (Q96QZ7 1146-1238): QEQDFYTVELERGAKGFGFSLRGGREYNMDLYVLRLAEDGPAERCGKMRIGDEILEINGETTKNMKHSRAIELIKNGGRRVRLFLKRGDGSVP

[10] = biological target: MAGI3_6, Q5TCQ9
Chain of MAGI3_6, Q5TCQ9 (Q5TCQ9 1014-1103): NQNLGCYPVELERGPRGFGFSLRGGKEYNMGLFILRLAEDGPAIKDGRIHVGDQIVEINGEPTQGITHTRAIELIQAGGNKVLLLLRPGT

[11] = biological target: T2, MLLT4, P55196
T2 sequence (P55196 1002-1103, limits assumed, looked up): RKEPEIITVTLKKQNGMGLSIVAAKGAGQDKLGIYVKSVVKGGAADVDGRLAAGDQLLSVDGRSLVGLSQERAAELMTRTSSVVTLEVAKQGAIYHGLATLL

[12] = biological target: T3, MPDZ_6, O75970
T3 sequence (O75970 1003-1099, limits assumed, looked up): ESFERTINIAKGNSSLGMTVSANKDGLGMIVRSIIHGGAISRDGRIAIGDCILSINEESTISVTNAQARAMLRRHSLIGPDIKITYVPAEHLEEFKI

[13] = biological target: T4, MPDZ_7, O75970
T4 sequence (O75970 1146-1253, limits assumed, looked up): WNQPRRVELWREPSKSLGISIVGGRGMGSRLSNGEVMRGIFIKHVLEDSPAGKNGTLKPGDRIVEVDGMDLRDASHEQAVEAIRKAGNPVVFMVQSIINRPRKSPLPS

[14] = biological target: T5, MPP5, Q8N3R9
T5 sequence (Q8N3R9 251-346, limits assumed, looked up): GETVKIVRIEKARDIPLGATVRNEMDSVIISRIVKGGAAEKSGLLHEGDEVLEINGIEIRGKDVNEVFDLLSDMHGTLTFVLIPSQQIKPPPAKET

[15] = biological target: T6, NHERF1_2, O14745
T6 sequence (O14745 149-244, limits assumed, looked up): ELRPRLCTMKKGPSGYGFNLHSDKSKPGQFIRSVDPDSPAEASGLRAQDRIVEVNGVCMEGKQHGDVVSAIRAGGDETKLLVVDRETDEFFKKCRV

[16] = biological target: T7, PDLIM3, Q53GG5
T7 sequence (Q53GG5 1-94, limits assumed, looked up): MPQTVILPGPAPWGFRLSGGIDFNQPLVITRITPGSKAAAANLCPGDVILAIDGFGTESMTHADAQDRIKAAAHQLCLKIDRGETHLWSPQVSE

[17] = biological target: PDLIM4, P50479
Chain of PDLIM4, P50479 (P50479 1-83): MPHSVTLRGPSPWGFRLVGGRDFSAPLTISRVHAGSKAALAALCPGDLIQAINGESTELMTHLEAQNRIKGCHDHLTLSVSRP

[18] = biological target: T8, PDZD2_3, O15018
T8 sequence (O15018 581-682, limits assumed, looked up): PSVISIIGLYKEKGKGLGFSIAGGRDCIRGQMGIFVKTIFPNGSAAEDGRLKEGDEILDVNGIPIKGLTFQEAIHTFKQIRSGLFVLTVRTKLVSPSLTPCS

[19] = biological target: T9, PDZD2_4, O15018
T9 sequence (O15018 723-823, limits assumed, looked up): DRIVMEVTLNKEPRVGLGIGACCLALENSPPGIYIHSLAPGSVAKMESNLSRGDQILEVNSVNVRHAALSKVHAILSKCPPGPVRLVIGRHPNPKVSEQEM

[20] = biological target: T10, PREX2_2, Q70Z35
T10 sequence (Q70Z35 672-764, limits assumed, looked up): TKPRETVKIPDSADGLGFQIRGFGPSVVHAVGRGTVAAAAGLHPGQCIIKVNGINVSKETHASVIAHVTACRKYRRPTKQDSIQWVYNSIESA

[21] = biological target: PTPN13_2, Q12923
Chain of PTPN13_2, Q12923 (Q12923 1363-1462): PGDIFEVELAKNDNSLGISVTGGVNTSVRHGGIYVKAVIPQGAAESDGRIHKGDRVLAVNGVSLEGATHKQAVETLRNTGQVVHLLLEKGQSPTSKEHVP

[22] = biological target: SDCBP_1, O00560
Chain of SDCBP_1, O00560 (O00560 111-198): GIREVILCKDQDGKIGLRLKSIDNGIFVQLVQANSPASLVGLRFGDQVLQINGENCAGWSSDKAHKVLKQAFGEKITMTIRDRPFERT

[23] = biological target: T11, TIAM2, Q8IVF5
T11 sequence (Q8IVF5 885-986, limits assumed, looked up): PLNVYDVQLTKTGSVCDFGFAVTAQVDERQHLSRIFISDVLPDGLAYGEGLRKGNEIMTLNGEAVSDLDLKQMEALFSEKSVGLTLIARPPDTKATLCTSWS

[24] = biological target: T12, TJP3_1, O95049
T12 sequence (O95049 6-103, limits assumed, looked up): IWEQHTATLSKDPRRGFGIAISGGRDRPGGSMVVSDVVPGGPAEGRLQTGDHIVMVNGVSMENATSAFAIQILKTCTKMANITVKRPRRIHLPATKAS

Chain of CARD14, Q9BXL6 (Q9BXL6 558-663): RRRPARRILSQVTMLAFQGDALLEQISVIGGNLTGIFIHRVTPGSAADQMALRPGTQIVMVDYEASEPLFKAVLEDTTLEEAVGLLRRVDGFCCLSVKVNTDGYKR

Binder	pKd [1]	pKd [2]	pKd [3]	pKd [4]	pKd [5]	pKd [6]	pKd [7]	pKd [8]	pKd [9]	pKd [10]	pKd [11]	pKd [12]	pKd [13]	pKd [14]	pKd [15]	pKd [16]	pKd [17]	pKd [18]	pKd [19]	pKd [20]	further results
RLQRRRETQV [HPV18-E6, P06463]	below the threshold	5.11	below the threshold	4.44	4.48	below the threshold	below the threshold	below the threshold	below the threshold	below the threshold	below the threshold	below the threshold	below the threshold	below the threshold	below the threshold	below the threshold	below the threshold	below the threshold	below the threshold	4	pKd [21]: below the threshold; pKd [22]: below the threshold; pKd [23]: below the threshold; pKd [24]: below the threshold
RLPKIKETTV [FRMPD4, Q14CM0]	below the threshold	5.32	4.7	4.44	below the threshold	4.48	4.45	4.5	4.57	below the threshold	below the threshold	below the threshold	below the threshold	below the threshold	below the threshold	4.24	below the threshold	below the threshold	below the threshold	4.25	pKd [21]: 4.31; pKd [22]: below the threshold; pKd [23]: below the threshold; pKd [24]: below the threshold
